Publication PMC10470895
Values joined by “and” are separate entries in the source; they are usually repeats but may differ in a detail not shown here. Equal values may be shown once.

Assays:
[1] = biological target: Pyruvate kinase M2 (PKM2) of the X. laevis oocyte nucleus (X. laevis (endogenous in oocytes)); assay: native gel or EMSA; oocyte nuclear homogenate, native PAGE as in Sen et al. (2016), 2x loading buffer with 200 mM KCl, Western blotting with anti-PKM2; Precision Plus markers
[2] = biological target: X. laevis oocyte GAPDH (glyceraldehyde 3-phosphate dehydrogenase, somatic form; GAPDH.s and GAPDH.l) (X. laevis (endogenous in oocytes)) (UniProt P51469); assay: native gel or EMSA; oocyte nuclear (up to 0.5 nuclei) and cytoplasmic (0.05 cytoplasm) homogenates in HR buffer on Invitrogen 4-16% NativePAGE Bis-Tris gel, Western blotting; compared with the bands of recombinant human GAPDH; second-dimension SDS-PAGE for cytoplasm
[3] = biological target: recombinant human GAPDH (glyceraldehyde 3-phosphate dehydrogenase) (human) (UniProt P04406); assay: native gel or EMSA; purified recombinant human GAPDH (1 ug) on Invitrogen 4-16% NativePAGE Bis-Tris gel, Western blotting; bands confirmed as GAPDH by second-dimension SDS-PAGE (about 36 kDa)

Chain of recombinant human GAPDH (glyceraldehyde 3-phosphate dehydrogenase), P04406 1-335 (enzyme; other documents disagree on this pair) (P04406 whole entry): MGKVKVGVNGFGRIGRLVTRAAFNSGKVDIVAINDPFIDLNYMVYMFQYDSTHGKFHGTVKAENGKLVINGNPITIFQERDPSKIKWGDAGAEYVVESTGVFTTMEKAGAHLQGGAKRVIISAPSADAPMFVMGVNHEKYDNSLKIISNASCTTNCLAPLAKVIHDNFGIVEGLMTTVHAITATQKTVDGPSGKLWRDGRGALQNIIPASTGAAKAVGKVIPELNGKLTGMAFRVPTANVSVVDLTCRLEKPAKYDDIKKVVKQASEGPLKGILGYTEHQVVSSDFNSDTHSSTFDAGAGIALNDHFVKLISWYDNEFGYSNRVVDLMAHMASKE
Chain of X. laevis oocyte GAPDH (glyceraldehyde 3-phosphate dehydrogenase, somatic form; GAPDH.s and GAPDH.l) (P51469 whole entry): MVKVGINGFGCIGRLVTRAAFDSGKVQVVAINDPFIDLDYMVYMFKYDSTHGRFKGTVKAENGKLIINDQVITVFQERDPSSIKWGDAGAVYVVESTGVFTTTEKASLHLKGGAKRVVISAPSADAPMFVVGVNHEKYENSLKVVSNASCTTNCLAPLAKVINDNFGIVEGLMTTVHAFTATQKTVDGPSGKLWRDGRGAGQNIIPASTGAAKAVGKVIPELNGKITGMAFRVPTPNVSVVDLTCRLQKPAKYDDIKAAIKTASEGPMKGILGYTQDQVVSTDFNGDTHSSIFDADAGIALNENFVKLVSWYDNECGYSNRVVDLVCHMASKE

Pyruvate kinase M2 (PKM2) of the X. laevis oocyte nucleus (enzyme)
stoichiometry N [1]: 4

X. laevis oocyte GAPDH (glyceraldehyde 3-phosphate dehydrogenase, somatic form; GAPDH.s and GAPDH.l) (from UniProt P51469 1-333) (enzyme)
stoichiometry N [2]: 4

recombinant human GAPDH (glyceraldehyde 3-phosphate dehydrogenase), P04406 1-335 (enzyme; other documents disagree on this pair)
stoichiometry N [3]: 2 and 4
